Data from patent US20080182795A1 (BOSTON MEDICAL CENTER, published 2008).
Where no end group is shown, it is not given here.

Assays:
rat GIP receptor = target: T1, rat GIP receptor (rat, UniProt P43219 19-455); experiment: competition with [125I]GIP (porcine) for binding to LGIPR2 cells carrying the rat GIP receptor, room temperature
T1 construct: whole, on cells; LGIPR2 cells also carry a cAMP-dependent VIP promoter-lacZ reporter; also called LGIPR2 cells; LGIRP2 cells
T1 sequence (looked up): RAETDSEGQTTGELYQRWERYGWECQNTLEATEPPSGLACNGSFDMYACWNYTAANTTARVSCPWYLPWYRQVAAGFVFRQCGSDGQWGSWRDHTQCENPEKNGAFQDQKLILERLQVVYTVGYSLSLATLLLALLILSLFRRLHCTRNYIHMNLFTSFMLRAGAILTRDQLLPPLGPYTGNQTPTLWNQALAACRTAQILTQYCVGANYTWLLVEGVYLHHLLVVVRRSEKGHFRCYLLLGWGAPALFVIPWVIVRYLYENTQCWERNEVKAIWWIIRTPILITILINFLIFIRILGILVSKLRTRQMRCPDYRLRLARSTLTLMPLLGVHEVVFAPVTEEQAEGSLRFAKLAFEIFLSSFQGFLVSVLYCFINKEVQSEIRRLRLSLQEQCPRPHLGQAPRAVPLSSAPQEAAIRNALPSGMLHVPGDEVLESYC
Protocol: (§1) The specific activity of radiolabeled peptides was 10-50 μCi/mg (Hunter, et al., 1962, Nature, 194:495-498; Kieffer, et al., 1993, Can. J Physiol. Pharmacol., 71:917-922). Aliquots were lyophilized and reconstituted in assay buffer at 4° C. to a concentration of 3×10⁵ cpm/100 μl. […] The receptor binding buffer contained 138 mM NaCl, 5.6 mM KCl, 1.2 mM MgCl₂, 2.6 mM CaCl₂, 10 mM Hepes, 10 mM glucose, and 1% bovine serum albumin (BSA, fraction V, protease free, Sigma). […] Cells were washed once with PBS and then harvested with PBS-EDTA solution. βTC3 cells were then suspended in assay buffer at a density of 2×10⁶ cells/ml, and LGIPR2 cells were used at a density of 2.5×10⁵ cells/ml. […] Specific binding was defined as the difference between counts in the absence and presence of unlabeled peptide. […] Values are expressed as a percentage of maximum specific binding and are the mean ±SE, with assays performed in duplicate.

[1] = target: T2, GLP-1 receptor of βTC3 cells (mouse, UniProt O35659 22-463); experiment: competition with [125I]GLP-1 for binding to βTC3 cells (GLP-1 receptor), room temperature
T2 construct: whole, on cells; also called βTC3 cell receptor; GLP-1 receptors
T2 sequence (looked up): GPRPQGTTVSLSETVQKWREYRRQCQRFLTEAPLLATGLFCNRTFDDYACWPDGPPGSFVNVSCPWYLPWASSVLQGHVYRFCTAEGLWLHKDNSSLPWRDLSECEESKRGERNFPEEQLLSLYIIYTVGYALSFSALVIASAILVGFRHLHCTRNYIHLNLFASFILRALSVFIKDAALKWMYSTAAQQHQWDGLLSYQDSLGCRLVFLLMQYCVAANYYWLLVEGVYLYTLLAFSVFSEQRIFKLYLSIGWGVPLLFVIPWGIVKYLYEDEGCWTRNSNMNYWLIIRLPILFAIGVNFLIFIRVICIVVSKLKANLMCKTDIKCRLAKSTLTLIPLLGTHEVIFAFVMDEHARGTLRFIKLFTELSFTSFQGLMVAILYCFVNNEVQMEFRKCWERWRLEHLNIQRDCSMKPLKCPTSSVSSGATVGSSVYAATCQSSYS
Protocol: as §1

ISDYSIAMDKIRQQDFVNWLLAQK-NH2 (also called ANTGIP; ANTGIIP) [GIP (7-30)-NH2] was tested, and the IC50 (rat GIP receptor) was 0.2 µM and the IC50 [1] was 80 µM.
